From patent US20200164069A1 (BOSTON PHARMACEUTICALS, published 2020)
Substitutions are numbered along the chain they refer to. Names and notes keep the numbering of the source.

T1: IL-4 (UniProt P05112 25-153)
T1 sequence (looked up): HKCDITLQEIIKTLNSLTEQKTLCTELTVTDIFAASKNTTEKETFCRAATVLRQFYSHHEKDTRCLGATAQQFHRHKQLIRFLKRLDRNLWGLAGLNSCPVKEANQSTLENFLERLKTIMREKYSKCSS

T2: IL-7 (UniProt P13232 26-177)
T2 sequence (looked up): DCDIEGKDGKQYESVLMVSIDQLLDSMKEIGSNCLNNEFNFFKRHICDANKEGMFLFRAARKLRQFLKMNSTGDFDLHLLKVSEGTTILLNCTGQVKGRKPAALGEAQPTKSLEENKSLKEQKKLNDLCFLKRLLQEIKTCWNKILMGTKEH

B1: K44VHa6-N56Q (antibody, IgG1, V domains shown)
VH: QVQLVQSGAEVKKPGASVKVSCKASGYTFTDYWMHWVRQAPGQGLEWMGTIDPSDQYTIYSQNFKGRVTMTVDESTSTVYMELSSLRSEDTAVYYCARYGFAMDYWGQGTLVTVSS
VL: DIQLTQSPSSLSASVGDRVTITCRASQDISNFLNWYQQKPGKAVKLLIYYTSRLHSGVPSRFSGSGSGTDYTLTISSLQPEDFATYYCQQGHTLPRTFGGGTKVEIKR
B2: K2Ha-N56Q (antibody, human IgG1, kappa, V domains shown)
VH: B1 VH with V72R, E74T
VL: B1 VL with Y87F
B3: murine monoclonal antibody 9H10 (antibody, V domains shown)
VH: EVQLQQFGAEVVKPGASVKMSCKASGYTFTDYNMNWVKQSHEKSLEWIGDIHPKFHSTNYNQKFKGKATLTIDTSSSTAYMELRNLTSEDTAVYYCARVGNYVYFVMDYWGQGTSVTVSS
VL: SIVMTQTPKFLLVSAGDRVTITCKASQSVSNDVAWYQQKPGQSPKLLIYYASNRYTGVPDRFSGSGYGTDFTFTISTVQAEDLAVYFCQQDYTSPWTFGGGTKLEIK
notes: also called 9H10.1
B4: murine monoclonal antibody 8B6 (antibody, V domains shown)
VH: EVQLVESGGGSVKPGGSLKLSCAASGLTFSHYYMYWVRQTPEKRLEWVAIISDGGDYTHYSDSVKGRFTISRDNAKNNLYLQMSSLQSEDTAMYYCAGDYGYGYEGWFAYWGQGTLVTVST
VL: DIVMTQSQKFMSTSVGDRVSVTCKASQNVDTYVAWYQQKPGQSPKALIYSTSYRYSGVPDRFTGSGSGTDFTLTISNVQSEDLAEYFCQQYNSYPWTFGGGTKLEIK
notes: also called 8B6.1
B5: 9F11-4 (antibody, IgG1, V domains shown)
VH: EVQLVESGGGLVQPGGSLRLSCAASGFTFSDAWMDWVRQAPGKGLEWVAEIRSEADNHPTYYAESVKGRFTISRDDSKNSLYLQMNSLKTEDTAVYYCTEYDYEGFVHWGQGTLVTVSS
VL: DIVMTQTPLSLSVTPGQPASISCRASKSVSTYGYSYMHWYLQKPGQPPQLLIYLASNLESGVPDRFSGSGSGTDFTLKISRVEAEDVGVYYCQHSRELPLTFGQGTKLEIK
B6: 9F11-6 (antibody, IgG1, V domains shown)
VH: B5 VH with L81V
VL: B5 VL
B7: 9F11-11 (antibody, IgG1, V domains shown)
VH: B5 VH
VL: B5 VL with M4L
B8: murine monoclonal antibody 19E3 (antibody, V domains shown)
VH: QVQLQQPGSELVMPGASVKMSCKASGYIFTDYWMHWVKQRPGQGLEWIGTIDPSDNYTIYSQNFKGKATLTVDESSSTAYMLLSSLTSEDSAVYFCARYGFAMDYWGQGTSVTVSS
VL: DIQLTQTTSSLSASLGDRVTISCRASQDISNFLNWYQQTPDGTVKLLIYYTSRLHSGVPSRFSGSGSGTDYSLTISNLEQEDIATYFCQQGHTLPRTFGGGTKLEIK
notes: also called 19E3.1
B9: recombinant cynomolgus monkey IL-21 (ligand)
chain: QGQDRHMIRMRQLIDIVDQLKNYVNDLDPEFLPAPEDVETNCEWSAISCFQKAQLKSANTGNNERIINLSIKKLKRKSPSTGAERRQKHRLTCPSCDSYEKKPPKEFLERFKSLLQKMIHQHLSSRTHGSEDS
notes: also called cyno IL-21; cynoIL-21

target: B9; test: cell-based or functional assay

Row | Binder | IC50 in pSTAT3 assay (human PBMCs, 20 pM IL-21) [pM]
1 | B1 | 9.75
2 | B2 | 15.6
3 | B3 | 160
4 | B4 | 228
5 | B5 | 52.2
6 | B6 | 50.8
7 | B7 | 45.9
8 | B8 | 5.99

target: T3, recombinant human IL-21 (human, UniProt Q9HBE4 30-162, limits assumed); test: cell-based or functional assay
T3 sequence (Q9HBE4 30-162 limits assumed, form in doubt): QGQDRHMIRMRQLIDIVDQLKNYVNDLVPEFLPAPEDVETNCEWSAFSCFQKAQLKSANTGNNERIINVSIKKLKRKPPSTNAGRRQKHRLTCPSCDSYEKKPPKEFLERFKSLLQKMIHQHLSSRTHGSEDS

Row | Binder | IC50 in pSTAT3 assay (human PBMCs, 20 pM IL-21) [pM]
9 | B1 | 5.5
10 | B2 | 18.7
11 | B3 | 328
12 | B4 | 115
13 | B5 | 12.1
14 | B6 | 13.2
15 | B7 | 13.6
16 | B8 | 3.15

target: B9; test: cell-based or functional assay; remark: another data set of the same source

Row | Binder | IC50 in PC differentiation assay (2 nM IL-21) [nM]
17 | B1 | 0.659
18 | B2 | 1.32
19 | B3 | 29.8
20 | B4 | 8.9
21 | B8 | 0.775

target: T3, recombinant human IL-21; test: cell-based or functional assay; remark: another data set of the same source

Row | Binder | IC50 in PC differentiation assay (2 nM IL-21) [nM]
22 | B1 | 0.573
23 | B2 | 0.618
24 | B3 | 116
25 | B4 | > 200
26 | B8 | 1.53

target: T3, recombinant human IL-21; test: method not stated for this clone (Table 2, column Kd hu)

Row | Binder | Kd [nM]
27 | B1 | 0.000245
28 | B2 | 0.000403
29 | B3 | 0.108

target: IL-15 (UniProt P40933 49-162); test: ELISA on plate-coated cytokine (2 µg/ml)
Method: (§1) ELISA was used to test cross reactivity of lead clones. Cytokines tested include 11-2, IL-4, IL-7, IL-9, and IL-15. Maxisorp ELISA plate (NUNC) was coated with 2 μg/ml of different cytokines in PBS at 4° C. overnight. The plate was then blocked with 3% BSA in PBST (PBS+0.1% Tween) at room temperature for one hour. Purified lead clone IgGs were serially diluted in PBST+3% BSA and the mixture was then added to each ELISA plate well and further incubated at room temperature for half an hour. After washing, secondary antibody-HRP was added to each well for 1 hour. Wells were washed first with PBST and then with PBS and the TMB solution from Pierce was added to detect the secondary antibody. After 5′ the reaction was stopped by the addition of 1N sulfuric acid. The plates were then read in an ELISA reader at 450 nm to detect the binding.

Chain of IL-15 (P40933 49-162 limits assumed): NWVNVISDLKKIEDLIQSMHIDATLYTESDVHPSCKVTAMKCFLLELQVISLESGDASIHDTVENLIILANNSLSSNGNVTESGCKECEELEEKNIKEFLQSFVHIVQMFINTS

Row | Binder | binding result
30 | B4 | no binding

target: T1, IL-4; test: ELISA on plate-coated cytokine (2 µg/ml)
Method: as §1

Row | Binder | binding result
31 | B1 | no binding
32 | B2 | no binding
33 | B3 | no binding
34 | B4 | no binding
35 | B8 | no binding

target: T2, IL-7; test: ELISA on plate-coated cytokine (2 µg/ml)
Method: as §1

Row | Binder | binding result
36 | B1 | no binding
37 | B2 | no binding
38 | B3 | no binding
39 | B4 | no binding
40 | B8 | no binding

target: IL-2 (UniProt P60568 21-153); test: ELISA on plate-coated cytokine (2 µg/ml)
Method: as §1

Chain of IL-2 (P60568 21-153 limits assumed): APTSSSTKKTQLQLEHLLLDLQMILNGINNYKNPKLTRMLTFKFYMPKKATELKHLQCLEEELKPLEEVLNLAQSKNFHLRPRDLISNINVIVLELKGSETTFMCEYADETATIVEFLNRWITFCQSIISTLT

Row | Binder | binding result
41 | B1 | no binding
42 | B2 | no binding
43 | B3 | no binding
44 | B4 | no binding
45 | B8 | no binding

target: K44VHa-N56Q (MEDI7169); test: KinExA solution-phase equilibrium titration: fixed 500 fM K44VHa-N56Q (MEDI7169) IgG, cynomolgus monkey IL-21 varied; free IgG captured on IL-21-coated beads (the competitor)
Method: (§2) The IL-21-coated Azlactone bead slurries were diluted to 30 mL with instrument buffer (PBS, pH 7.4, 0.02% NaN3) in a bead vial and affixed to the KinExA instrument. A user-defined timing program was used to sequentially transfer the IL-21/Azlactone beads to a capillary flow cell in the instrument, and individual sample mixtures were injected over the IL-21-coated beads. Unbound sample solution was removed by washing the beads with instrument buffer. A 1- or 2-μg/mL solution of the DyLight649-labeled, goat-anti-hulgG(H+L) secondary reagent (Thermo Scientific) was passed over the beads to detect receptor (K44VHa-N56Q) that remained bound to the IL-21-coated beads. […] The amount of fluorescence that remained associated with the beads was measured, and the signal was converted to percent free receptor (K44VHa-N56Q). […] Once the data had been collected for all samples in each series (500 fM and 50 pM K44VHa-N56Q), an isotherm was generated, which plotted the amount of free K44VHa-N56Q detected at each concentration of IL-21. The resulting 2 binding curves were then evaluated in a dual curve analysis using the instrument's evaluation software (KinExA Pro Software, v. 2.0.1.26, Sapidyne) from which individual KDS for each interaction were derived.
(§3) The binding of K44VHa-N56Q to human and cynomolgus monkey IL-21 was measured by KinExA. […]

Row | Binder | IC50 (read off the curve) [nM]
46 | B9 | ~0.001

target: K44VHa-N56Q (MEDI7169); test: KinExA solution-phase equilibrium titration: fixed 50 pM K44VHa-N56Q (MEDI7169) IgG, cynomolgus monkey IL-21 varied; free IgG captured on IL-21-coated beads (the competitor)
Method: as §2, §3

Row | Binder | IC50 (read off the curve) [nM]
47 | B9 | ~0.06

target: B9; test: cell-based or functional assay; remark: another data set of the same source

Row | Binder | IC50 in NK-92 cell assay (IFNγ, 200 pM IL-21)
48 | B1 | 60.3 pM
49 | B2 | 83.4 pM
50 | B3 | 3.43 nM
51 | B4 | 771 pM
52 | B8 | 37 pM

target: T3, recombinant human IL-21; test: cell-based or functional assay; remark: another data set of the same source

Row | Binder | IC50 in NK-92 cell assay (IFNγ, 200 pM IL-21)
53 | B1 | 54.8 pM
54 | B2 | 99 pM
55 | B3 | 20.2 nM
56 | B4 | 944 pM
57 | B8 | 41 pM

target: B9; test: cell-based or functional assay; remark: another data set of the same source

Row | Binder | inhibition of IgG production by human B cells [%]
58 | B8 | > 99

target: IL-21 (species not stated in the assay) (Homo sapiens (Human), UniProt Q9HBE4 25-162, Biotinylated in the competition ELISA of paragraph 259 (sites not given); unlabelled in the other results.); test: cell-based or functional assay
Sequence (Q9HBE4 25-162 limits assumed): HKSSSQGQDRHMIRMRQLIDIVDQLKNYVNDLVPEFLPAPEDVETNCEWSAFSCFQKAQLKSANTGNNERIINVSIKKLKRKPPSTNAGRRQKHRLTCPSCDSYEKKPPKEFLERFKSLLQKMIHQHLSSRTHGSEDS

Row | Binder | maximal inhibition in pSTAT3 assay [%]
59 | B1 | 100
60 | B2 | 100
61 | B3 | 100
62 | B4 | 100
63 | B5 | 100
64 | B6 | 100
65 | B7 | 100
66 | B8 | 100

target: T3, recombinant human IL-21; test: cell-based or functional assay; remark: another data set of the same source

Row | Binder | IC50 of IL-21-induced proliferation of human naive CD4+ T cells (ATP, day 4) [nM] | inhibition of IgG production by human B cells [%]
67 | B8 | 0.061 | > 99
